These results are taken from US20210104294A1 (published 2021).

The labels stand for the following.
T1: HLA-A*01:01 (human, UniProt P04439-2 25-302)
T1 chain: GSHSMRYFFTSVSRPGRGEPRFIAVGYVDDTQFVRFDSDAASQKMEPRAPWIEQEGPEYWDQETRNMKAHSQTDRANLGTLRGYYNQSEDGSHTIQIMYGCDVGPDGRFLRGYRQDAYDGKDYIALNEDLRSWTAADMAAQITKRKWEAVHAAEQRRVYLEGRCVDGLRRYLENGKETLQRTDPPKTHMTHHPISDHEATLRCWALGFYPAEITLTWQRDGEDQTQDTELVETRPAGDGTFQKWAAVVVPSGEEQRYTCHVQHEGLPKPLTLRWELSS

The target in one assay is HLA-B*51:01 (human). In words: in vitro peptide-MHC affinity measurement.
As for YIIEREPLI, half-maximal inhibition (IC50) was put at 1790 nM.

Consider DGLRDLPSI, for which the half-inhibitory concentration (IC50) (commonly the concentration that inhibits the measured activity by half) was 12.6 nM. Compared with the last molecule, the IC50 is about 140-fold lower.

Molecule DAYPQRIKF showed an IC50 of 31 nM.

The molecule DGLLRVLTV showed an IC50 of 0.2 nM.

For TPESKIRFV, the IC50 was 84.8 nM.

With IIYPTPKVV, the IC50 stood at 38 nM.

DAPLNIRSI: the midpoint of inhibition, the IC50, lay at 6.5 nM.

Take DGRLVINRV: the IC50 came out at 13.5 nM.

In turn, DGYVVKETI had an IC50 of 13.4 nM.

The molecule VPPLVPKVL gave an IC50 of 56.3 nM. Compared with the last molecule, the IC50 is about 4.2-fold higher.

In turn, VALLVGEKV registered an IC50 of 144 nM.

The next assay has as its target HLA-A*29:02 (human, UniProt P04439 25-308). In words: in vitro peptide-MHC affinity measurement.
LPLDIQIFY displayed an IC50 of 4.6 nM.

Take GLDDKLLHY: the IC50 was found to be 21.3 nM.

GLPDLVAKY gave a half-inhibitory concentration (IC50) of 29.7 nM.

As to FYPELKLAY, inhibition was half-maximal at 0.2 nM (IC50).

The molecule YLPALKVEY had an IC50 of 2.6 nM. Against the preceding molecule, the IC50 is about 13-fold higher.

ALSDLALHF registered a 50% inhibitory concentration (IC50) of 6 nM.

With HFLDRHLVF, the 50% inhibitory concentration (IC50) was 1.6 nM.

Another assay addresses HLA-B*54:01 (human, UniProt P01889 25-309). In words: in vitro peptide-MHC affinity measurement.
FVEILIPVA returned an IC50 of 12.2 nM. That is a double-digit nanomolar value.

SAPVNFISA returned an IC50 of 16.6 nM.

As for FPKETFEGP, half-maximal inhibition (IC50) was put at 16.4 nM. The IC50 values of the last two molecules are within 1.5-fold of each other.

In the case of YPVYQPVGP, the IC50 came out at 1.7 nM.

YGFVNYVTA: the IC50 was 6 nM.

A further assay addresses T1, HLA-A*01:01. In words: in vitro peptide-MHC affinity measurement.
Take KLDLLEQEY: 70.6 nM corresponded to half-maximal inhibition (IC50).

With DTEFPNFKY, the midpoint of inhibition, the IC50, lay at 80.8 nM.

ATDGKVLLW showed an IC50 of 191 nM. This IC50 lies about 2.4-fold higher than the previous one.

With FLWPEAFLY, the IC50 turned out to be 1.3 nM.

The molecule TTDGYLLRL gave an IC50 of 78.9 nM.

On to YVPEHWEYY, for which 11.1 nM corresponded to half-maximal inhibition (IC50).
